This note sets out measurements from patent publication US20210032299A1.

Starred links: 1 amine or outer side, 2 acyl side, 3 side chain; linkers in the order of their positions; H or OH if unused. Non-standard residues stand in square brackets, D forms with d. Groups on a side chain read outwards from the residue. No end group written: not given here. *: point of attachment. C20 diacid = O=C(O)CCCCCCCCCCCCCCCCCCC(=O)*; αMePhe(2-F) = C[C@](N)(Cc1ccccc1F)C(=O)O; γGlu = O=C(O)[C@H](CCC(=O)[*:2])N[*:1]; αMeF = C[C@](N)(Cc1ccccc1)C(=O)O; 4Pal = N[C@@H](Cc1ccncc1)C(=O)O; αMeL = CC(C)C[C@](C)(N)C(=O)O; AEEA = NCCOCCOCC(=O)O; Aib = CC(C)(N)C(=O)O

For orientation: Ki means the dissociation constant of the complex between target and ligand, obtained from inhibition or displacement. Higher therefore signals weaker binding.

Assay [1] addresses T1, human glucose-dependent insulinotropic polypeptide (GIP) receptor (human), P48546.
T1 chain: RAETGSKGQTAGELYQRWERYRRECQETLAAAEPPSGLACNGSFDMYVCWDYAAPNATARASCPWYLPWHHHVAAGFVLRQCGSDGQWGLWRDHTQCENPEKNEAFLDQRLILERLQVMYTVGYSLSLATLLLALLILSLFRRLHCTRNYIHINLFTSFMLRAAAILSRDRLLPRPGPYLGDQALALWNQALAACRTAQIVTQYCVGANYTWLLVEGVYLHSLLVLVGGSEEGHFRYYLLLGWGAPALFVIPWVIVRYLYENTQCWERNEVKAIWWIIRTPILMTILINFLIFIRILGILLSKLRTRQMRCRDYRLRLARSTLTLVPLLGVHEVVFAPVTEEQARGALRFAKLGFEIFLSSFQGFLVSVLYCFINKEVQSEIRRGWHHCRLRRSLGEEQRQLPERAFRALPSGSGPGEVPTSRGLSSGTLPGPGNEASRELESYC
The assay is described as follows: SPA, displacement of [125I]-GIP from hGIPR membranes, 0.1% bacitracin. (In general: Loss of bound radioactivity is the signal in a displacement assay; it reports binding, not function.)

In assay [2] the target is human glucagon receptor (human), P47871. The assay is described as follows: SPA, displacement of [125I]-Gcg from hGcgR membranes, 0.1% bacitracin.
human glucagon receptor (human), P47871, sequence (P47871 26-477): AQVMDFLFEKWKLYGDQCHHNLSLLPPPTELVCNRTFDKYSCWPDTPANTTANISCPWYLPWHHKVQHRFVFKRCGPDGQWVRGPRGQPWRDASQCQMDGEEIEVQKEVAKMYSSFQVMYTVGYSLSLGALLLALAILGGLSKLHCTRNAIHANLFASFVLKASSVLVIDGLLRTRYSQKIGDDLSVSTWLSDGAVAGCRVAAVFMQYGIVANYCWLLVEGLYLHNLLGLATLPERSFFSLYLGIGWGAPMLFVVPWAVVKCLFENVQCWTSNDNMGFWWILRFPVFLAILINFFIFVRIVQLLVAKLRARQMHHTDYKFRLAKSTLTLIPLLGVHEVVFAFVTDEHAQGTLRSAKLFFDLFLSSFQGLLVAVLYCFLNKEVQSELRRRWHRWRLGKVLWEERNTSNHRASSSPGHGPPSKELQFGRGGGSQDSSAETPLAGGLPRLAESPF
Assay [3] has as its target T2, human GLP-1 receptor (human), P43220.
T2 chain: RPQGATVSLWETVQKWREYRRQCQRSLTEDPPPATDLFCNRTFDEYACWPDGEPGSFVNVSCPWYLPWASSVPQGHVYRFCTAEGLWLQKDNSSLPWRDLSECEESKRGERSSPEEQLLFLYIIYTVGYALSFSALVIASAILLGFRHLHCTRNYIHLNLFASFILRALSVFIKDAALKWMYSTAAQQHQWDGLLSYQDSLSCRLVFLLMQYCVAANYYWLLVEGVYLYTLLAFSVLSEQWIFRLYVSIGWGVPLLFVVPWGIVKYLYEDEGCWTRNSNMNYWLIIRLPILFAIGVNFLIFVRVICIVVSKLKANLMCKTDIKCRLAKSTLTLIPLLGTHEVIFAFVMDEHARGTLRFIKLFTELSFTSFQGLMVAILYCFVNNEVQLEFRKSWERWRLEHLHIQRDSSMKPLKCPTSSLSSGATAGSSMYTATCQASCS
The assay is described as follows: SPA, displacement of [125I]-GLP-1 from hGLP-1R membranes, 0.1% bacitracin.

B1: Example 97 (peptide)
peptide: Y[Aib]EGT[αMeF]ISDYSIALDKIHQ[Aib]EFVNYK([AEEA-AEEA-γGlu-C20 diacid])LAGGPSSGAPPPS-NH2
modifications: N-terminus assumed
SMILES: CC[C@H](C)[C@H](NC(=O)[C@H](CO)NC(=O)[C@H](Cc1ccc(O)cc1)NC(=O)[C@H](CC(=O)O)NC(=O)[C@H](CO)NC(=O)[C@@H](NC(=O)[C@](C)(Cc1ccccc1)NC(=O)[C@@H](NC(=O)CNC(=O)[C@H](CCC(=O)O)NC(=O)C(C)(C)NC(=O)[C@@H](N)Cc1ccc(O)cc1)[C@@H](C)O)[C@@H](C)CC)C(=O)N[C@@H](C)C(=O)N[C@@H](CC(C)C)C(=O)N[C@@H](CC(=O)O)C(=O)N[C@@H](CCCCN)C(=O)N[C@H](C(=O)N[C@@H](Cc1c[nH]cn1)C(=O)N[C@@H](CCC(N)=O)C(=O)NC(C)(C)C(=O)N[C@@H](CCC(=O)O)C(=O)N[C@@H](Cc1ccccc1)C(=O)N[C@H](C(=O)N[C@@H](CC(N)=O)C(=O)N[C@@H](Cc1ccc(O)cc1)C(=O)N[C@@H](CCCCNC(=O)COCCOCCNC(=O)COCCOCCNC(=O)CC[C@H](NC(=O)CCCCCCCCCCCCCCCCCCC(=O)O)C(=O)O)C(=O)N[C@@H](CC(C)C)C(=O)N[C@@H](C)C(=O)NCC(=O)NCC(=O)N1CCC[C@H]1C(=O)N[C@@H](CO)C(=O)N[C@@H](CO)C(=O)NCC(=O)N[C@@H](C)C(=O)N1CCC[C@H]1C(=O)N1CCC[C@H]1C(=O)N1CCC[C@H]1C(=O)N[C@@H](CO)C(N)=O)C(C)C)[C@@H](C)CC
For B1, the values for the Ki in assay [1], in assay [2] and in assay [3] were 0.0249 nM, 77.5 nM and 570 nM, respectively.

B2: Example 117 (peptide)
peptide: Y[Aib]EGTFISDYSI[αMeL]LDKIHQ[Aib]DFVEYK([AEEA-AEEA-γGlu-C20 diacid])LEAGPSSGAPPPS-NH2
modifications: N-terminus assumed
SMILES: CC[C@H](C)[C@H](NC(=O)[C@H](CCCCN)NC(=O)[C@H](CC(=O)O)NC(=O)[C@H](CC(C)C)NC(=O)[C@](C)(CC(C)C)NC(=O)[C@@H](NC(=O)[C@H](CO)NC(=O)[C@H](Cc1ccc(O)cc1)NC(=O)[C@H](CC(=O)O)NC(=O)[C@H](CO)NC(=O)[C@@H](NC(=O)[C@H](Cc1ccccc1)NC(=O)[C@@H](NC(=O)CNC(=O)[C@H](CCC(=O)O)NC(=O)C(C)(C)NC(=O)[C@@H](N)Cc1ccc(O)cc1)[C@@H](C)O)[C@@H](C)CC)[C@@H](C)CC)C(=O)N[C@@H](Cc1c[nH]cn1)C(=O)N[C@@H](CCC(N)=O)C(=O)NC(C)(C)C(=O)N[C@@H](CC(=O)O)C(=O)N[C@@H](Cc1ccccc1)C(=O)N[C@H](C(=O)N[C@@H](CCC(=O)O)C(=O)N[C@@H](Cc1ccc(O)cc1)C(=O)N[C@@H](CCCCNC(=O)COCCOCCNC(=O)COCCOCCNC(=O)CC[C@H](NC(=O)CCCCCCCCCCCCCCCCCCC(=O)O)C(=O)O)C(=O)N[C@@H](CC(C)C)C(=O)N[C@@H](CCC(=O)O)C(=O)N[C@@H](C)C(=O)NCC(=O)N1CCC[C@H]1C(=O)N[C@@H](CO)C(=O)N[C@@H](CO)C(=O)NCC(=O)N[C@@H](C)C(=O)N1CCC[C@H]1C(=O)N1CCC[C@H]1C(=O)N1CCC[C@H]1C(=O)N[C@@H](CO)C(N)=O)C(C)C
Regarding B2, the Ki in assay [1] was found to be 0.0722 nM; in assay [2], 685 nM; in assay [3], 591 nM.

B3: Example 98 (peptide)
peptide: Y[Aib]EGT[αMePhe(2-F)]ISDYSIALDKIHQ[Aib]EFVNYK([AEEA-AEEA-γGlu-C20 diacid])LAGGPSSGAPPPS-NH2
modifications: N-terminus assumed
SMILES: CC[C@H](C)[C@H](NC(=O)[C@H](CO)NC(=O)[C@H](Cc1ccc(O)cc1)NC(=O)[C@H](CC(=O)O)NC(=O)[C@H](CO)NC(=O)[C@@H](NC(=O)[C@](C)(Cc1ccccc1F)NC(=O)[C@@H](NC(=O)CNC(=O)[C@H](CCC(=O)O)NC(=O)C(C)(C)NC(=O)[C@@H](N)Cc1ccc(O)cc1)[C@@H](C)O)[C@@H](C)CC)C(=O)N[C@@H](C)C(=O)N[C@@H](CC(C)C)C(=O)N[C@@H](CC(=O)O)C(=O)N[C@@H](CCCCN)C(=O)N[C@H](C(=O)N[C@@H](Cc1c[nH]cn1)C(=O)N[C@@H](CCC(N)=O)C(=O)NC(C)(C)C(=O)N[C@@H](CCC(=O)O)C(=O)N[C@@H](Cc1ccccc1)C(=O)N[C@H](C(=O)N[C@@H](CC(N)=O)C(=O)N[C@@H](Cc1ccc(O)cc1)C(=O)N[C@@H](CCCCNC(=O)COCCOCCNC(=O)COCCOCCNC(=O)CC[C@H](NC(=O)CCCCCCCCCCCCCCCCCCC(=O)O)C(=O)O)C(=O)N[C@@H](CC(C)C)C(=O)N[C@@H](C)C(=O)NCC(=O)NCC(=O)N1CCC[C@H]1C(=O)N[C@@H](CO)C(=O)N[C@@H](CO)C(=O)NCC(=O)N[C@@H](C)C(=O)N1CCC[C@H]1C(=O)N1CCC[C@H]1C(=O)N1CCC[C@H]1C(=O)N[C@@H](CO)C(N)=O)C(C)C)[C@@H](C)CC
In the case of B3, the Ki worked out at 0.0195 nM in assay [1], 38.4 nM in assay [2] and 311 nM in assay [3].

B4: Example 119 (peptide)
peptide: H-Y[Aib]EGT[αMePhe(2-F)]ISDYSILLDKIHQ[Aib]DFVE[4Pal]K([AEEA-AEEA-γGlu-C20 diacid])LEGGPSSGAPPPS-NH2
SMILES: CC[C@H](C)[C@H](NC(=O)[C@H](CO)NC(=O)[C@H](Cc1ccc(O)cc1)NC(=O)[C@H](CC(=O)O)NC(=O)[C@H](CO)NC(=O)[C@@H](NC(=O)[C@](C)(Cc1ccccc1F)NC(=O)[C@@H](NC(=O)CNC(=O)[C@H](CCC(=O)O)NC(=O)C(C)(C)NC(=O)[C@@H](N)Cc1ccc(O)cc1)[C@@H](C)O)[C@@H](C)CC)C(=O)N[C@@H](CC(C)C)C(=O)N[C@@H](CC(C)C)C(=O)N[C@@H](CC(=O)O)C(=O)N[C@@H](CCCCN)C(=O)N[C@H](C(=O)N[C@@H](Cc1c[nH]cn1)C(=O)N[C@@H](CCC(N)=O)C(=O)NC(C)(C)C(=O)N[C@@H](CC(=O)O)C(=O)N[C@@H](Cc1ccccc1)C(=O)N[C@H](C(=O)N[C@@H](CCC(=O)O)C(=O)N[C@@H](Cc1ccncc1)C(=O)N[C@@H](CCCCNC(=O)COCCOCCNC(=O)COCCOCCNC(=O)CC[C@H](NC(=O)CCCCCCCCCCCCCCCCCCC(=O)O)C(=O)O)C(=O)N[C@@H](CC(C)C)C(=O)N[C@@H](CCC(=O)O)C(=O)NCC(=O)NCC(=O)N1CCC[C@H]1C(=O)N[C@@H](CO)C(=O)N[C@@H](CO)C(=O)NCC(=O)N[C@@H](C)C(=O)N1CCC[C@H]1C(=O)N1CCC[C@H]1C(=O)N1CCC[C@H]1C(=O)N[C@@H](CO)C(N)=O)C(C)C)[C@@H](C)CC
With B4, the Ki in assay [1] was found to be 0.129 nM; in assay [2], 68.8 nM; in assay [3], 723 nM.

B5: Example 95 (peptide)
peptide: Y[Aib]EGT[αMePhe(2-F)]ISDYSIALDKIHQ[Aib]EFVNYK([AEEA-AEEA-γGlu-C20 diacid])LEGGPSSGAPPPS-NH2
modifications: N-terminus assumed
SMILES: CC[C@H](C)[C@H](NC(=O)[C@H](CO)NC(=O)[C@H](Cc1ccc(O)cc1)NC(=O)[C@H](CC(=O)O)NC(=O)[C@H](CO)NC(=O)[C@@H](NC(=O)[C@](C)(Cc1ccccc1F)NC(=O)[C@@H](NC(=O)CNC(=O)[C@H](CCC(=O)O)NC(=O)C(C)(C)NC(=O)[C@@H](N)Cc1ccc(O)cc1)[C@@H](C)O)[C@@H](C)CC)C(=O)N[C@@H](C)C(=O)N[C@@H](CC(C)C)C(=O)N[C@@H](CC(=O)O)C(=O)N[C@@H](CCCCN)C(=O)N[C@H](C(=O)N[C@@H](Cc1c[nH]cn1)C(=O)N[C@@H](CCC(N)=O)C(=O)NC(C)(C)C(=O)N[C@@H](CCC(=O)O)C(=O)N[C@@H](Cc1ccccc1)C(=O)N[C@H](C(=O)N[C@@H](CC(N)=O)C(=O)N[C@@H](Cc1ccc(O)cc1)C(=O)N[C@@H](CCCCNC(=O)COCCOCCNC(=O)COCCOCCNC(=O)CC[C@H](NC(=O)CCCCCCCCCCCCCCCCCCC(=O)O)C(=O)O)C(=O)N[C@@H](CC(C)C)C(=O)N[C@@H](CCC(=O)O)C(=O)NCC(=O)NCC(=O)N1CCC[C@H]1C(=O)N[C@@H](CO)C(=O)N[C@@H](CO)C(=O)NCC(=O)N[C@@H](C)C(=O)N1CCC[C@H]1C(=O)N1CCC[C@H]1C(=O)N1CCC[C@H]1C(=O)N[C@@H](CO)C(N)=O)C(C)C)[C@@H](C)CC
Consider B5, for which the Ki in assay [1] was 0.0255 nM; in assay [2], 85 nM; in assay [3], 832 nM.
